Article PMC10419500, “FvWRKY50 is an important gene that regulates both vegetative growth and reproductive growth in strawberry”

B1: proDFR probe W290 (dsDNA)
DNA 1: CTTATATCCACATCTTGACCGTTCAGTTTATAG
DNA 2: CTATAAACTGAACGGTCAAGATGTGGATATAAG
B2: proFT3 probe W982 (dsDNA)
DNA 1: GATCCATTTCCATTGACCAGACTCACCTCAC
DNA 2: GTGAGGTGAGTCTGGTCAATGGAAATGGATC
B3: proCHI probe W1610 (dsDNA)
DNA 1: CTCATTTTACCAAGTTGACCCCTTCATTTG
DNA 2: CAAATGAAGGGGTCAACTTGGTAAAATGAG

Target: FvWRKY50-His (Fragaria vesca? (diploid strawberry; …, UniProt A0A2H4G369 6-213)
Experiment: EMSA; 200-fold unlabeled probe used as competitor; EMSA buffer, salt, pH and temperature not given in the material
Settings: protein: recombinant, tags: His (pET30a; also written His-FvWRKY50), blunt

FvWRKY50-His (Fragaria vesca?, sequence (A0A2H4G369 entry or part of it): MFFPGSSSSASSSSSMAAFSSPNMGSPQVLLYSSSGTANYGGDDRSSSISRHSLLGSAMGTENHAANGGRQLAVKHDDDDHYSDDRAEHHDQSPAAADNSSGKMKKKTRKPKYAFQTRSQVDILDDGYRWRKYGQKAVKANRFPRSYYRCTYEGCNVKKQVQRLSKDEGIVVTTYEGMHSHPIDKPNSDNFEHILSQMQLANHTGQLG

Binder | binding result | binding result (label: biotin)
B1 | binds | –
B2 | – | binds
B3 | binds | –
